Test results as given in patent US20140005126A1 (ISOGENICA, published 2014).
Bridges are numbered along the chain shown (N, C = ends). Where no end group is shown, it is not given here. The star is where a group is joined. Biotin = O=C1N[C@H]2[C@H](CS[C@H]2CCCCC(=O)*)N1

Tests used:
human serum albumin [1] = biological target: T1, human serum albumin (human, UniProt P02768 25-609); experiment: phage ELISA for specificity: 50 ng of each protein coated per well, absorbance at 450 nm; six bars per clone in the order of the legend: VEGFR2, human IgG, monoclonal antibody, enzyme, HSA, blocked well
T1 construct: also called HSA
Description: (§1) ELISAs were then performed to screen for modified WW domain peptides that bind to the target ligand. NUNC Maxisorp plates were coated with 50 ng per well of VEGFR2 in PBS overnight at 4° C. After blocking the plates with PBS, 2% BSA, 0.1% Tween-20, phage displaying the selected clones were added, diluted in blocking buffer, and incubated for 1 hour. WW domain binders were detected using horseradish peroxidase-conjugated anti-M13 antibody (GE) and SureBlue TMB peroxidase substrate (Insight Biotechnology, Middlesex, UK); and the ELISA signal was read at 450 nm.
The specificity of clones selected for binding to VEGFR2 was assayed in an ELISA against a selection of non-target peptides/proteins, as described above. 50 ng of each of the different target and non-target proteins was coated per well of and ELISA plate and each of the modified WW domain peptides was added.

VEGFR2-Fc fusion [2] = biological target: T2, VEGFR2-Fc fusion; experiment: phage ELISA: phage-displayed clone on wells coated with 50 ng VEGFR2, anti-M13-HRP, absorbance at 450 nm; control: uncoated blocked wells (light bars)
T2 construct: Bought from R&D Systems
Description: as §1

human serum albumin [3] = biological target: T1, human serum albumin; experiment: phage ELISA: phage-displayed clone on HSA-coated control wells (right bar of each pair), read at 450 nm
Human β-NGF = biological target: T3, Human β-NGF (human, UniProt P01138 123-240, limits assumed); experiment: phage ELISA: phage-displayed clone on NGF-coated wells (left bar of each pair), read at 450 nm; control: HSA-coated wells (right bar)
T3 construct: R&D Systems; It was biotinylated via carboxyl groups for the selection

VEGFR2-Fc fusion [4] = biological target: T2, VEGFR2-Fc fusion; experiment: biolayer interferometry (Octet Red), peptide on streptavidin sensors, steady state analysis; cyclised WW-B1, steady state analysis
Description: Real-time binding assays between the peptides and VEGFR2-Fc fusion were performed using biolayer interferometry with an Octet Red system (Fortebio, Menlo Park, Calif.). WW peptides were immobilised on streptavidin biosensors (Fortebio) at a concentration of 2 μg/ml in kinetic buffer. Association curves were then detected by incubating the immobilised peptide with […] (1 to 100 nM in kinetic buffer), and dissociations were detected by incubating the sensors in kinetic buffer. All of the peptides from the affinity maturation, bind to VEGFR2 with a similar affinity as WW-B1.
The dissociation constant for cyclised WW-B1 binding to VEGFR2 was determined by steady state analysis to be 31 nM±4.8 nM (FIG. 12).

VEGFR2-Fc fusion [5] = biological target: T2, VEGFR2-Fc fusion; experiment: biolayer interferometry (Octet Red), biotinylated WW-B1 on streptavidin sensors, VEGFR2-Fc 1 to 100 nM, steady state analysis
Description: Real time binding assays between chemically synthesised clone WW-B1 and VEGFR2-Fc fusion were performed using biolayer interferometry with an Octet Red system (Fortebio, Menlo Park, Calif.). Biotinylated WW-B1 was immobilised to streptavidin biosensors (Fortebio) at a concentration of 50 ng/μl in PBS. Association curves were then detected by incubating WW-B1-coated sensors with different concentrations of VEGFR2 (1 to 100 nM in PBS), and dissociations were detected by incubating the sensors in PBS. The dissociation constant for WW-B1 binding to VEGFR2 was determined by steady state analysis to be 44 nM±1.1 nM (FIG. 5).

VEGFR2-Fc fusion [6] = biological target: T2, VEGFR2-Fc fusion; experiment: competition ELISA: inhibition of VEGFR2 binding to coated VEGF by WW-B1-MBP
Description: A competition assay was carried out in which binding of VEGFR2 to VEGF-A (VEGF) was competed by the presence of varying amounts of the selected modified WW domain peptide.
50 ng human VEGF (R&D Systems, Abingdon, UK) 1 μg/ml in PBS was coated per well onto a Maxisorp plate at 37° C. for 140 minutes. The wells were then blocked with 100 μl PBS containing 2% BSA for 55 minutes at room temperature. 1.25 ng VEGFR2 was preincubated with WW-B1 fused to maltose binding protein (MBP) in 50 μl PBS for 45 minutes at room temperature. The activity of the WW-B1 peptide was tested at serial dilutions from 10 μM to 156.25 nM. 50 μl 4% BSA in PBS was added to the preincubated VEGFR2 with WW-B1-MBP and the whole mixture was then added to the VEGF coated ELISA plate and incubated at room temperature for 55 minutes. The plate was then washed with 3 washes in PBS-Tween and 2 washes in PBS. Next 50 μl/well penta His-HRP (QIAgen, diluted 1:500 in 2% BSA in PBS) was added and the mixture incubated at room temperature for 55 minutes, before washing as before. ELISA signals were detected using SureBlue TMB peroxidase substrate (Insight biotechnology, Middlesex, UK) at 450 nm.
As a control, the above process was repeated with wild-type Pin1 WW domain peptide replacing WW-B1. The results are illustrated in FIG. 6.

T1 sequence (P02768 25-609 limits assumed): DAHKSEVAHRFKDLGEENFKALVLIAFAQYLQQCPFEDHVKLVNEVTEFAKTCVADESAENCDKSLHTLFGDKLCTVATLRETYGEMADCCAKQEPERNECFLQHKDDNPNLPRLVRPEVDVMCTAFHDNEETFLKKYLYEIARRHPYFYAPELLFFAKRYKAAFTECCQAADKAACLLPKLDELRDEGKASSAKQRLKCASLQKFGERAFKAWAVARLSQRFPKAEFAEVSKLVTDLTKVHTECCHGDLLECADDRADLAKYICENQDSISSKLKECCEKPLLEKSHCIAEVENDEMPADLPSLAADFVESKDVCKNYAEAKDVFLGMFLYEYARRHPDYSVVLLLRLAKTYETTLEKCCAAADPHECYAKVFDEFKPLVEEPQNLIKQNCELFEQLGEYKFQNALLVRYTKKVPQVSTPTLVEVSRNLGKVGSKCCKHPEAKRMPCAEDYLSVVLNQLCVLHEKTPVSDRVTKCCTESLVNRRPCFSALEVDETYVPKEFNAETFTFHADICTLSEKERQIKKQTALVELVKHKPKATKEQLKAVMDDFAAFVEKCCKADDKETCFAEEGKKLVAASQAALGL
T3 sequence (P01138 123-240 limits assumed): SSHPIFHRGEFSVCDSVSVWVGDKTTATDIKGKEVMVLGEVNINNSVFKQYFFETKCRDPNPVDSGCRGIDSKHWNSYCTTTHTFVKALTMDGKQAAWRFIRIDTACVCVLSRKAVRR

**Q.** Does MADEEKLPPGWGKGWSPRGRVWYTNRTTVAAQWERPSG (designed binder, not shown: large carriers, also: fused to gpIII (M13 phage display), linker not given here) [clone H4, phage-displayed modified Pin1 WW domain peptide] bind (human serum albumin [1])?
**A.** no binding

**Q.** Does MADEEKLPPGWGKGWSPRGRVWYTNRTTVAAQWERPSG (designed binder, not shown: large carriers, also: fused to gpIII (M13 phage display), linker not given here) [clone H4, phage-displayed modified Pin1 WW domain peptide] bind (VEGFR2-Fc fusion [2])?
**A.** binds

**Q.** Does MADEEKLPPGWTVWSPNGRVYYWNSITVARQWERPSG (designed binder, not shown: large carriers, also: fused to gpIII (M13 phage display), linker not given here) [clone NP-H8, phage-displayed modified Pin1 WW domain peptide] bind (human serum albumin [3])?
**A.** no binding

**Q.** Does MADEEKLPPGWTVWSPNGRVYYWNSITVARQWERPSG (designed binder, not shown: large carriers, also: fused to gpIII (M13 phage display), linker not given here) [clone NP-H8, phage-displayed modified Pin1 WW domain peptide] bind (Human β-NGF)?
**A.** binds

**Q.** Does MADEEKLPPGWAVWSPDGRLYYWNSVIVSTRWGRPSC (designed binder, not shown: large carriers, also: fused to gpIII (M13 phage display), linker not given here) [clone NP-A12, phage-displayed modified Pin1 WW domain peptide] bind (human serum albumin [3])?
**A.** no binding

**Q.** Does MADEEKLPPGWAVWSPDGRLYYWNSVIVSTRWGRPSC (designed binder, not shown: large carriers, also: fused to gpIII (M13 phage display), linker not given here) [clone NP-A12, phage-displayed modified Pin1 WW domain peptide] bind (Human β-NGF)?
**A.** binds

**Q.** Does MADEEKLPPGWYKMWSSPGRVLYVNDITHAHRWERPSG (designed binder, not shown: large carriers, also: fused to gpIII (M13 phage display), linker not given here, also called WW-B1) [clones B1 and H1, phage-displayed modified Pin1 WW domain peptide] bind (human serum albumin [1])?
**A.** no binding

**Q.** Does MAVEEKLPPGWYKMWSSPGRVLYVNDITHAHQWERPSG (designed binder, not shown: large carriers, also: fused to gpIII (M13 phage display), linker not given here) [clone B4, phage-displayed modified Pin1 WW domain peptide] bind (VEGFR2-Fc fusion [2])?
**A.** binds

**Q.** Does MADEEKLPPGWYKMWSSPGRVLYVNDITHAHQWERPSG (designed binder, not shown: large carriers, also: fused to gpIII (M13 phage display), linker not given here) [clones E1, E3, H3, C4, E4, G4 and H6, phage-displayed modified Pin1 WW domain peptide] bind (human serum albumin [1])?
**A.** no binding

**Q.** Does MADEEKLPPGWCKFWSTAGRVIYINRITGAKQWERPSG (designed binder, not shown: large carriers, also: fused to gpIII (M13 phage display), linker not given here) [clone A1, phage-displayed modified Pin1 WW domain peptide] bind (human serum albumin [1])?
**A.** no binding

**Q.** Does MADEEKLPPGWGKPWSARGRVTYINLITVAEQWERPS (designed binder) [NP-E3] bind (human serum albumin [3])?
**A.** no binding

B1: cyclic WW-B1 peptide (Glu38 variant), cyclised through amino acids at positions 6 and 38 (designed binder)
peptide: Biotin-DEEKLPPGWYKMWSSPGRVLYVNDITHAHRWERPEG-NH2
modifications: lactam 4-35
SMILES: CC[C@H](C)[C@@H]1NC(=O)[C@H](CC(=O)O)NC(=O)[C@H](CC(N)=O)NC(=O)[C@H](C(C)C)NC(=O)[C@H](Cc2ccc(O)cc2)NC(=O)[C@H](CC(C)C)NC(=O)[C@H](C(C)C)NC(=O)[C@H](CCCNC(=N)N)NC(=O)CNC(=O)[C@@H]2CCCN2C(=O)[C@H](CO)NC(=O)[C@H](CO)NC(=O)[C@H](Cc2c[nH]c3ccccc23)NC(=O)[C@H](CCSC)NC(=O)[C@H](CCCCN)NC(=O)[C@H](Cc2ccc(O)cc2)NC(=O)[C@H](Cc2c[nH]c3ccccc23)NC(=O)CNC(=O)[C@@H]2CCCN2C(=O)[C@@H]2CCCN2C(=O)[C@H](CC(C)C)NC(=O)[C@@H](NC(=O)[C@H](CCC(=O)O)NC(=O)[C@H](CCC(=O)O)NC(=O)[C@H](CC(=O)O)NC(=O)CCCC[C@@H]2SC[C@@H]3NC(=O)N[C@@H]32)CCCCNC(=O)CC[C@@H](C(=O)NCC(N)=O)NC(=O)[C@@H]2CCCN2C(=O)[C@H](CCCNC(=N)N)NC(=O)[C@H](CCC(=O)O)NC(=O)[C@H](Cc2c[nH]c3ccccc23)NC(=O)[C@H](CCCNC(=N)N)NC(=O)[C@H](Cc2c[nH]cn2)NC(=O)[C@H](C)NC(=O)[C@H](Cc2c[nH]cn2)NC(=O)[C@H]([C@@H](C)O)NC1=O
notes: also called cyclised WW-B1
**Q.** For B1, which Kd (VEGFR2-Fc fusion [4]) is on record?
**A.** 31 nM

B2: WW-B1 VEGFR2 WW domain, chemically synthesised, biotinylated (linear) (designed binder)
peptide: Biotin-MADEEKLPPGWYKMWSSPGRVLYVNDITHAHRWERPSG
modifications: not fully specified
notes: Modified Pin1 WW domain; also called linear WW-B1; clone WW-B1
**Q.** How did the Kd (VEGFR2-Fc fusion [5]) turn out when B2 was run?
**A.** 44 nM

**Q.** MADEEKLPPGWYKMWSSPGRVLYVNDITHAHRWERPSG (designed binder, not shown: large carriers, also: fused to maltose binding protein (MBP), order and linker not given here, also called WW-B1-MBP) [WW-B1 fused to maltose binding protein (MBP)] was tested. Which EC50 (VEGFR2-Fc fusion [6]) did it give?
**A.** 76 nM
